Where “and” joins values, the source holds several entries; their conditions need not be identical. Equal values may be shown once.
B1: Ribonuclease, P00648 (parent)
chain: MMKMEGIALKKRLSWISVCLLVLVSAAGMLFSTAAKTETSSHKAHTEAQVINTFDGVADYLQTYHKLPDNYITKSEAQALGWVASKGNLADVAPGKSIGGDIFSNREGKLPGKSGRTWREADINYTSGFRNSDRILYSSDWLIYKTTDHYQTFTKIR

Variants of: B1
Details: Bacillus amyloliquefaciens; pH 6.3; 25 °C; Urea; Fluorescence; MES 1.00 M; NaCl 613 mM; reversible: yes; structure 1BNI; whole UniProt chain shown

Variant | ddG of mutation (higher = less stable)
N88D | 2.51 kcal/mol
N131A | 2.24 kcal/mol
N105A | 2.17 kcal/mol
I123V | 0.88 kcal/mol
I123A | 2.04 kcal/mol and 1.16 kcal/mol
K109R | 0.43 kcal/mol
I72V | 1.18 kcal/mol
I135A | 2.76 kcal/mol
V57T | 2.58 kcal/mol
V57A | 3.63 kcal/mol
I102T | 1 kcal/mol
I102A | 1.28 kcal/mol
E76G | 1.9 kcal/mol
S138A | 1.93 kcal/mol
T152V | 2.25 kcal/mol
I143A | 2.37 kcal/mol

Variant | ddG of mutation (higher = less stable)
I156A | 2.22 kcal/mol and 1.4 kcal/mol
I156V | 0.82 kcal/mol
I51V | 0.67 kcal/mol
I51A | 1.5 kcal/mol and 0.83 kcal/mol
V92T | 2.44 kcal/mol
V92A | 1.83 kcal/mol
N52A | 2.06 kcal/mol
I98V | 1.85 kcal/mol
N124A | 1.88 kcal/mol
S139A | 2.74 kcal/mol
D101A | 3.1 kcal/mol
D101N | 2.42 kcal/mol
V83A | 1.34 kcal/mol
L136V | 0.03 kcal/mol
L136T | 2.9 kcal/mol and 2.55 kcal/mol

Source: FireProtDB (doi:10.1016/0022-2836(92)90564-z)
